One test concerns the target Protein S (Homo sapiens) (UniProt P07225). Particulars: cited from earlier work.
The target of test [1] is PRP6-HO7 (Proline-rich Protein domain CCP6 heptamerized) (human) (UniProt P04003). Briefly: SDS-PAGE under reducing and non-reducing conditions; 4-12% gradient SDS-PAGE of the purified proteins, Coomassie (Blue Safe) staining and Western blot with anti-6xHis and anti-C4BP α-chain antibodies; reduced against non-reduced size. A general note: A western blot detects proteins with antibodies after separation by electrophoresis.

pKd: −log10 of the molar value.

UniProt P07225, sequence (P07225 42-676): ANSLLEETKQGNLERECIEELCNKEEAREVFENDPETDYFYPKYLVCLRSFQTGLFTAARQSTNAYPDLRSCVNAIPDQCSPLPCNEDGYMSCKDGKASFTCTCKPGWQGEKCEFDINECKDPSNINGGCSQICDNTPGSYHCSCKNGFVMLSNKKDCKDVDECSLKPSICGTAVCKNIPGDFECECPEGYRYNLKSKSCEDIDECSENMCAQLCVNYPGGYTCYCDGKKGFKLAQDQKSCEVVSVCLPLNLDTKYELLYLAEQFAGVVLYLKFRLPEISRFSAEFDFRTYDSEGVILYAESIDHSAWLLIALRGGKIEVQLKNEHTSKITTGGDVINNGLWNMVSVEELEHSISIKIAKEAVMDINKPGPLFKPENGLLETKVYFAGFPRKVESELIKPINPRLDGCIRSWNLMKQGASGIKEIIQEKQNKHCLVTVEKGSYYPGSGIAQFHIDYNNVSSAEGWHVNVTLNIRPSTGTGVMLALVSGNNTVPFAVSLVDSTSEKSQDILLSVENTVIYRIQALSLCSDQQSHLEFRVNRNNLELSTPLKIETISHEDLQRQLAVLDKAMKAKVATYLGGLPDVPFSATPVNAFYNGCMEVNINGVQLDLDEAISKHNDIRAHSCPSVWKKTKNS

In general, pKd refers to the Kd on a negative log10 scale, so that one unit is a factor of ten. Take “C4BP beta-chain CCP1 (from UniProt P20851)”: the negative logarithm of the Kd (pKd) with Protein S (Homo sapiens) was 10.00. Broadly, the stoichiometry N is a count of units in the complex or per binding partner. “PRP6-HO7 (Proline-rich Protein domain CCP6 heptamerized) (from UniProt P04003 540-597)” yielded a stoichiometry N in test [1] of 7.
